Source: paper PMC12328743
Bridges are numbered along the chain shown (N, C = ends). Where no end group is shown, it is not given here.

Target: staphylococcal TMcin-G1905 (mature transmembrane helix-containing bacteriocin peptide, processed product of TmcA) (Staphylococcus aureus (isolate G1905))

B1: staphylococcal TMcin-G1905 (mature transmembrane helix-containing bacteriocin peptide, processed product of TmcA) (peptide)
chain: AWFVVLLAAILVFATAIFAGLTIWCVVNQHGKFTGNWNWHIKGVSLDVECKR
modifications: disulfide 25-50
  discrete stepwise conductance events in voltage-clamped planar lipid bilayers (DPhPC, 150 mM KCl) after adding purified TMcin-G1905; median conductance: 10.8 nS
